Test results as given in the supplement of paper PMC7125110.
± gives the standard error. For some assays here: Variants at the floor of the assay were thinned out.

B1: glmS ribozyme (parent)
chain: AUAAAAGCGCCAGAACUACAGAAAUGUAGUUGACGAGGAGGAGGUUUAUCGAAUUUUCGGCGGAUGCCUCCAAA

Legend:
Settings in all cases: with glucosamine-6-phosphate
glucosamine-6-phosphate [1] = variants of: B1; assay: kcat; higher = faster cleavage; RNA array
Summary of the method: (§1)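 Glucosamine-6-phosphate, from 40 μM to 10 mM in HEPES/KCl/Mg(OAc)2 buffer, was flowed over sequenced MiSeq chips carrying barcoded ribozyme variants transcribed in situ by E. coli RNA polymerase. A hybridised Cy3 probe tracked the variants at 37 °C as tiles were imaged over ~14 h. kobs, kcat and KM were obtained by fitting normalised per-tile medians to exponential decays and then applying weighted Michaelis–Menten fits across concentrations.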

glucosamine-6-phosphate [2] = variants of: B1; assay: KM; higher = weaker cofactor use; RNA array
Summary of the method: as §1

glucosamine-6-phosphate [3] = variants of: B1; assay: self-cleavage kobs at 40 uM GlcN6P; higher = faster cleavage; RNA array
Summary of the method: as §1

glucosamine-6-phosphate [4] = variants of: B1; assay: self-cleavage kobs at 160 uM GlcN6P; higher = faster cleavage; RNA array
Summary of the method: as §1

glucosamine-6-phosphate [5] = variants of: B1; assay: self-cleavage kobs at 640 uM GlcN6P; higher = faster cleavage; RNA array
Summary of the method: as §1

glucosamine-6-phosphate [6] = variants of: B1; assay: self-cleavage kobs at 2500 uM GlcN6P; higher = faster cleavage; RNA array
Summary of the method: as §1

glucosamine-6-phosphate [7] = variants of: B1; assay: self-cleavage kobs at 10000 uM GlcN6P; higher = faster cleavage; RNA array
Summary of the method: as §1

| Variant | kcat (glucosamine-6-phosphate [1]) | KM (glucosamine-6-phosphate [2]) | self-cleavage kobs at 40 uM GlcN6P (glucosamine-6-phosphate [3]) | self-cleavage kobs at 160 uM GlcN6P (glucosamine-6-phosphate [4]) | self-cleavage kobs at 640 uM GlcN6P (glucosamine-6-phosphate [5]) | self-cleavage kobs at 2500 uM GlcN6P (glucosamine-6-phosphate [6]) | self-cleavage kobs at 10000 uM GlcN6P (glucosamine-6-phosphate [7]) |
| --- | --- | --- | --- | --- | --- | --- | --- |
| U65C | 0.000875 ± 9.1e-05 s⁻¹ | 1690 ± 310 µM | 2.21e-05 ± 2.1e-06 s⁻¹ | 6.95e-05 ± 2.6e-06 s⁻¹ | 0.000238 ± 5.5e-06 s⁻¹ | 0.000626 ± 1.6e-05 s⁻¹ | 0.000705 ± 1.6e-05 s⁻¹ |
| U65G | 0.00543 ± 0.0002 s⁻¹ | 3670 ± 190 µM | 5.85e-05 ± 1.3e-06 s⁻¹ | 0.000217 ± 7.2e-06 s⁻¹ | 0.000813 ± 1.9e-05 s⁻¹ | 0.00237 ± 8.3e-05 s⁻¹ | 0.00393 ± 7.2e-05 s⁻¹ |
| C70G C71U | 0.000112 ± 1.4e-05 s⁻¹ | 401 ± 170 µM | – | 5.07e-05 ± 7.8e-06 s⁻¹ | 6.12e-05 ± 4.8e-06 s⁻¹ | 0.000102 ± 8.1e-06 s⁻¹ | 0.00011 ± 8.6e-06 s⁻¹ |
| C68A C70U | 1.14e-05 ± 4.1e-06 s⁻¹ | – | – | – | – | – | – |
| A6C A12G | – | – | < 1e-05 s⁻¹ | < 1e-05 s⁻¹ | < 1e-05 s⁻¹ | – | – |
| C68U U69G | 2.33e-05 ± 5.5e-06 s⁻¹ | – | – | – | – | 3.45e-05 ± 1.6e-05 s⁻¹ | – |
| C68U U69C | 8.69e-05 ± 6.8e-06 s⁻¹ | 2850 ± 730 µM | – | – | – | 3.88e-05 ± 1.4e-05 s⁻¹ | 6.79e-05 ± 1.1e-05 s⁻¹ |
| A6C A52U C67G | – | – | < 1e-05 s⁻¹ | – | – | – | – |
| A6C A52C | – | – | < 1e-05 s⁻¹ | < 1e-05 s⁻¹ | < 1e-05 s⁻¹ | < 1e-05 s⁻¹ | < 1e-05 s⁻¹ |
| G59A G60C | – | 30.9 ± 14 µM | – | – | – | – | – |
| U69A C70G | 1.72e-05 ± 8e-06 s⁻¹ | – | – | – | – | – | – |
| U69C C71U | 0.000591 ± 7.2e-05 s⁻¹ | 368 ± 88 µM | 5.8e-05 ± 1.1e-05 s⁻¹ | 0.000208 ± 5.6e-05 s⁻¹ | 0.000326 ± 9.3e-05 s⁻¹ | 0.000432 ± 9.4e-05 s⁻¹ | 0.000676 ± 0.00011 s⁻¹ |
| C67U C68U | 0.000115 ± 7.3e-06 s⁻¹ | 293 ± 85 µM | – | 3.97e-05 ± 8.6e-06 s⁻¹ | 7.85e-05 ± 9.1e-06 s⁻¹ | 0.000124 ± 1.3e-05 s⁻¹ | 0.000107 ± 7.4e-06 s⁻¹ |
| C70A C71G | 5.62e-05 ± 4.3e-06 s⁻¹ | – | – | 3.29e-05 ± 1.1e-05 s⁻¹ | 5.81e-05 ± 7.8e-06 s⁻¹ | 5.08e-05 ± 7.8e-06 s⁻¹ | 5.37e-05 ± 7.8e-06 s⁻¹ |
| C70A C71U | 9.41e-05 ± 4.3e-06 s⁻¹ | 384 ± 58 µM | – | 2.83e-05 ± 1e-05 s⁻¹ | 5.75e-05 ± 1e-05 s⁻¹ | 8.22e-05 ± 1e-05 s⁻¹ | – |
| U2C | – | – | 0.000889 ± 0.00014 s⁻¹ | – | 0.0102 ± 0.0023 s⁻¹ | 0.00926 ± 0.003 s⁻¹ | 0.0584 ± 0.014 s⁻¹ |
| G37A G63A | – | 278 ± 110 µM | – | – | – | – | – |
| A1U U2G A3G A5U A6C G7C C8A G9U C10A C11A | – | – | < 1e-05 s⁻¹ | < 1e-05 s⁻¹ | < 1e-05 s⁻¹ | < 1e-05 s⁻¹ | < 1e-05 s⁻¹ |

| Variant | kcat (glucosamine-6-phosphate [1]) | KM (glucosamine-6-phosphate [2]) | self-cleavage kobs at 40 uM GlcN6P (glucosamine-6-phosphate [3]) | self-cleavage kobs at 160 uM GlcN6P (glucosamine-6-phosphate [4]) | self-cleavage kobs at 640 uM GlcN6P (glucosamine-6-phosphate [5]) | self-cleavage kobs at 2500 uM GlcN6P (glucosamine-6-phosphate [6]) | self-cleavage kobs at 10000 uM GlcN6P (glucosamine-6-phosphate [7]) |
| --- | --- | --- | --- | --- | --- | --- | --- |
| U69A C71A | 2.44e-05 ± 5.9e-06 s⁻¹ | – | – | – | – | – | – |
| A6C A52U U54A U55C | – | – | < 1e-05 s⁻¹ | – | < 1e-05 s⁻¹ | – | < 1e-05 s⁻¹ |
| G44C C50A | – | 105 ± 18 µM | – | – | – | – | – |
| U65G C68U | 0.00167 ± 0.00057 s⁻¹ | – | 5.31e-05 ± 8.4e-06 s⁻¹ | 0.000159 ± 3.2e-05 s⁻¹ | 0.000304 ± 4.1e-05 s⁻¹ | 0.000758 ± 0.00013 s⁻¹ | 0.00155 ± 0.00018 s⁻¹ |
| A6C A15U A36C G43A U46G C50U A53U C61U | – | – | < 1e-05 s⁻¹ | – | < 1e-05 s⁻¹ | < 1e-05 s⁻¹ | < 1e-05 s⁻¹ |
| G66C C70A | 8.82e-05 ± 1.9e-05 s⁻¹ | – | – | 8.3e-05 ± 3e-05 s⁻¹ | 4.17e-05 ± 1.3e-05 s⁻¹ | 6.82e-05 ± 1.2e-05 s⁻¹ | 9e-05 ± 1.4e-05 s⁻¹ |
| A36C C61U | – | 44.5 ± 18 µM | – | – | – | – | – |
| U65G C70A | 0.000185 ± 1.6e-05 s⁻¹ | 825 ± 210 µM | – | – | 7.93e-05 ± 1.6e-05 s⁻¹ | 0.000183 ± 6.7e-05 s⁻¹ | 0.000167 ± 2.7e-05 s⁻¹ |
| U65G G66U | 0.00147 ± 0.00011 s⁻¹ | 2310 ± 320 µM | 1.83e-05 ± 8e-06 s⁻¹ | 9.38e-05 ± 2.2e-05 s⁻¹ | 0.000342 ± 5.3e-05 s⁻¹ | 0.000789 ± 0.0001 s⁻¹ | 0.00117 ± 0.00012 s⁻¹ |
| C10U C50G | – | 51.5 ± 26 µM | 6.14e-05 ± 1e-05 s⁻¹ | 9.85e-05 ± 1.3e-05 s⁻¹ | 0.000136 ± 1.7e-05 s⁻¹ | 0.00051 ± 0.0002 s⁻¹ | 0.000116 ± 3e-05 s⁻¹ |
| U65C C71U | 0.000792 ± 0.00011 s⁻¹ | 1460 ± 510 µM | – | – | 0.000236 ± 4.3e-05 s⁻¹ | 0.000617 ± 0.00011 s⁻¹ | 0.000659 ± 8e-05 s⁻¹ |
| U65C C71A | 0.000104 ± 5.5e-06 s⁻¹ | 481 ± 140 µM | – | – | 6.26e-05 ± 2.5e-05 s⁻¹ | 8.23e-05 ± 2e-05 s⁻¹ | 0.000102 ± 2.3e-05 s⁻¹ |
| C34U A42U | – | 70.4 ± 29 µM | – | – | – | – | – |
| C67G C68U | 7.04e-05 ± 1.8e-06 s⁻¹ | 234 ± 34 µM | – | 2.51e-05 ± 1e-05 s⁻¹ | 5.35e-05 ± 6.6e-06 s⁻¹ | 6.33e-05 ± 6e-06 s⁻¹ | 6.92e-05 ± 6.7e-06 s⁻¹ |
| A72C | 0.00605 ± 0.0029 s⁻¹ | – | 0.000372 ± 7.3e-05 s⁻¹ | – | 0.00257 ± 0.00043 s⁻¹ | 0.00362 ± 0.00077 s⁻¹ | 0.0121 ± 0.0021 s⁻¹ |
| G66U C68U | 0.000348 ± 2.4e-05 s⁻¹ | 1260 ± 190 µM | 2.21e-05 ± 1e-05 s⁻¹ | 3.82e-05 ± 1.3e-05 s⁻¹ | 0.000116 ± 1.2e-05 s⁻¹ | 0.000226 ± 4e-05 s⁻¹ | 0.000311 ± 2.9e-05 s⁻¹ |
| G66U C68G | 4.91e-05 ± 1.9e-05 s⁻¹ | – | – | 3.35e-05 ± 1.3e-05 s⁻¹ | 8.19e-05 ± 1.4e-05 s⁻¹ | 6.89e-05 ± 1.1e-05 s⁻¹ | – |
